Results reported in the nanobody polyreactivity screen of Harvey et al. (2022).

Experiment: yeast display, Sf9 membrane polyspecificity reagent, FACS + sequencing; frameworks hold sequencing errors
Outline: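 Galactose-induced (36–48 hours) yeast carrying a synthetic nanobody display library were exposed to 10% biotinylated, detergent-solubilized Sf9 membrane reagent at 4 °C for 1 hour. FACS followed streptavidin microbead enrichment, using low and high (top ~1%) gates for expression (anti-HA) and reagent binding (streptavidin). Colony PCR, MiSeq 2 × 250 sequencing and CDR-length filtering followed. Labels for polyreactivity reflect the gate of origin.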

Sequence | polyreactivity (PSR sort gate)
QVQLVESGGGLVQAGGSLRLSCAASGSIFPHNAMGWYRQAPGKERELVAAISWRDVITYYADSVKGRFTISRDNAKNTVYLQMNSLKPEDTAVYYCAAELRVYGVDYEYWGQGTQVTVSS | high polyreactivity
QVQLVESGGGLVQAGGSLRLSCAASGRTVGYNAMGWYRQAPGKERELVAAISRSGDSTYYADSVKGRFTISRDNAKNTVYLQMNSLKPEDTAVYYCATRYVTTGYDYWGQGTQVTVSS | low polyreactivity
QVQLVESGGGLVQAGGSLRLSCAASGITFYEYAMGWYRQAPGKERELVATITSGGNTNYADSVKGRFTISRDNAKNTVYLQMNSLKPEDTAVYFCATRPYGYSCNRPYDYWGQGTQVTVSS | low polyreactivity
QVQLVESGGGLVQAGGSLRLSCAASGFIFSTYAMGWYRQAPGKERELVAAITRTGTRTYYADSVKGRFTISRDNAKNTVYLQMNSLKPEDTAVYYCAARAGGEAYGSRYGYWGQGTQVTVSS | high polyreactivity
QVQLVESGGGLVQAGGSLRLSCAASGRTFRWYAMGWYRQAPGKERELVASITWSGGSTYYADSVKGRFTISRDNAKNTVYLQMNSLKPEDTAVYYCAARDRRGAYYYWGQGTQVTVSS | high polyreactivity
QVQLVESGGGLVQAGGSLRLSCAASGFIFPRNVMGWYRQAPGKERELVAAISRSGGSTYYADSVKGRFTISRDNAKNTVYLQMNSLTPEDTAVYYCAKRPAYYYFVYQVPIGYDYWGQGTQVTVSS | high polyreactivity
QVQLVESGGGLVQAGGSLRLSCAAYGNTFEHYAKGWYRQAPVKERELVAAISNSGGSTYYADSVKGRFTLSRDNAKNTVYLQMNSLKPEDTAVYYCNARGRASATVRLGRPDPFGDWGQGTQVTVSS | high polyreactivity
QVQLVESGGGLVQAGGSLRLSCAASGSIFNLYTMGWYRQAPGKEMELVAVITGGGSTYYADSVKGRFTISRDNAKNTVYLQMNSLKPADTAVYYCAAKGPFYKSSRTGDYWGQGTQVTVSS | low polyreactivity
QVQLVESGGGLVQAGGSLRLSCAASGSIFYSYAMGWYRQAPGKERELVATITRRGGSTYYADSVKGRFTISRDNAKNTVYLQMNSLKPEDTAVYYCAVKPVRYAYRIYDLRFEYWGQGTQVTVSS | high polyreactivity
QVQLVESGGGLVQAGGSLRLSCAASGSIFVGYAMGWYRQAPWKERELVAAISKRGGGTYYADSVKGRFTISRDNAKNTVYLHMNSLKPEDTAVYYCNAVPVHLDVASGYYYWGQGTQVTVSS | high polyreactivity
QVQLVESGGGLVQAGGSLRLSCAASGRTFQRYAMGWYRQAPGKERELVAAISRGGITYYADSVKGRFTISRDNAKNTVYLQMNSLKPEDTAVYYCAALYRYYHESSPFDYWGQGTQVTVSS | high polyreactivity
QVQLVESGGGLVQAGGSLRLSCAASGSIFRYYAMGWYRRAPGKERELVAAISRRGSSTYYADSVKGRFTISRDNAKNTVYLQMNSLKPEDTAVYYCAAGDFKQYDYWGQGTQVTVSS | high polyreactivity
QVQLEESGGGLVQAGGSLRLSCAASGTFVTYMGWYRQAPGKERELVAAIRNGGSTNYADSVKGRFTISRDNAKNTVYLQMNSLKPEDTAVYYCAARVTYSRGYRGGSRTKYDYWGQGTQVTVSS | low polyreactivity
QVQLVESGGGLVQAGGSLRLSCAASGFTFGFYVMGWYRQAPGKERELVAAITVRAGSTYYADSVKGRFTISRDNAKNTVYLQMNSLKPEDTAVYYCAADSYRLYSSIAYYGMYSWGQGTQVTVSS | high polyreactivity
QVQLVESGGGLVQAGGSLRLSCAASGRTIDSNAMGWYRQAPGKERELVAAISSDGGSTYYADSVKGRFTISRDNAKNTVYLQMNSLKPEDTAVYYCNAYYGRFPYYADDYWGQGTQVTVSS | low polyreactivity
QVQLVESGGGLVQAGGSLRLSCAASGRIFRYYAMGWYRQAPGKETELVAAISKSGGGTFYADSVKGRFTISRDNAKNPVYLQMNSLKPEDTAVYYCAARDKGLGKHDYWGQGTQVTVSS | high polyreactivity
QVQLVESGGGLVQAGGSLRLSCAASGIIFAWYAMGWYRQAPGKERELVAAITSRGGSRTFYADSVKGRFTISRDNAKNTVYLQMNSLKPEDTAVYYCAVVTRAHPEDYWGQGTQVTVSS | high polyreactivity
